Data published in patent US20250236673A1 (Ablynx, published 2025).
Substitutions are numbered along the chain they refer to. Names and notes keep the numbering of the source. One block for each binder: values may come before it.

Molecular target: T1, recombinant human CEACAM5 (human, UniProt P06731 35-685, limits assumed)
T1 construct: Immobilised by amine coupling on a CM5 chip
T1 sequence (looked up): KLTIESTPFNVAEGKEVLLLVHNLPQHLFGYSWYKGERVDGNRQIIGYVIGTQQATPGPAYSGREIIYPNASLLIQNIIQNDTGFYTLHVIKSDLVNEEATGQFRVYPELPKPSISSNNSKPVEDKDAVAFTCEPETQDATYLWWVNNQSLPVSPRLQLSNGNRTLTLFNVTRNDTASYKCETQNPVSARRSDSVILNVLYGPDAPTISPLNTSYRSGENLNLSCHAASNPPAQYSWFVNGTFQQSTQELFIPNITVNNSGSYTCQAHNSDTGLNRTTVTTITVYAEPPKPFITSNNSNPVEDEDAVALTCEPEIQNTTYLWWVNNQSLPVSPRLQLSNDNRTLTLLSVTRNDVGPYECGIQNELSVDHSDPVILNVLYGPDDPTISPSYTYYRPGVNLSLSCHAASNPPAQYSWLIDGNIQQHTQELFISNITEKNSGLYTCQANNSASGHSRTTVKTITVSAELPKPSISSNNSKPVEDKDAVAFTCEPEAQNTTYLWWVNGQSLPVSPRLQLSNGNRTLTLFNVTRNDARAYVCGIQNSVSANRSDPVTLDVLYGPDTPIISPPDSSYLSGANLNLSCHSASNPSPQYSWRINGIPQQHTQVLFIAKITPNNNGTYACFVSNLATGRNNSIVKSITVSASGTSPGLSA
Experiment: SPR Biacore 8K+, CEACAM5 amine-coupled on CM5, ISVD analyte, 1:1 fit

Kd: 2.54 nM
koff: 0.000976 s⁻¹
kon: 385000 M⁻¹ s⁻¹
B1: T028501799 (VHH)
VHH: EVQLVESGGGVVQPGGSLRLSCAASGLTFSTYTMGWFRQAPGKEREFVAAIIWSGSNTYYADSVAGRFTISRDNAKNTVYLQMNSLRPEDTALYYCAAQHFGPIGLTTRGYHYWGQGTLVTVSS
notes: K64A vs precursor T028501789; also called A0315007E07(K64A)

Kd: 3.55 nM
koff: 0.000914 s⁻¹
kon: 258000 M⁻¹ s⁻¹
B2: T028501795 (VHH)
VHH: B1 VHH with A65E
notes: K64E vs precursor T028501789; also called A0315007E07(K64E)

Kd: 1.72 nM
koff: 0.000911 s⁻¹
kon: 529000 M⁻¹ s⁻¹
B3: T028501800 (VHH)
VHH: B1 VHH with A65K, K76E
notes: K75E vs precursor T028501789; also called A0315007E07(K75E)

Kd: 1.56 nM
koff: 0.000917 s⁻¹
kon: 586000 M⁻¹ s⁻¹
B4: T028501804 (VHH)
VHH: B1 VHH with A65K, K76A
notes: K75A vs precursor T028501789; also called A0315007E07(K75A)

Kd: 1.45 nM
koff: 0.00087 s⁻¹
kon: 602000 M⁻¹ s⁻¹
B5: T028501791 (VHH)
VHH: B1 VHH with K43Q, A65K
notes: K43Q vs precursor T028501789; also called A0315007E07(K43Q)

Kd: 8.9 nM
koff: 0.00212 s⁻¹
kon: 238000 M⁻¹ s⁻¹
B6: T028501817 (VHH)
VHH: EVQLVESGGGVVQPGGSLRLSCAASGHTFSEYALGWFRQAPGKEREFVAAINWGGGWTYYADSVKGRFTISRDNAKNTLYLQMNSLRPEDTALYYCAASSDYAGGNPTGYPYWGQGTLVTVSS
notes: also called A031500099; A0315024B02(L11V, A14P, D16G S23A, M43K, Q64K, K83R, G85E, G89L)

Kd: 18.2 nM
koff: 0.00282 s⁻¹
kon: 155000 M⁻¹ s⁻¹
B7: T028501823 (VHH)
VHH: B6 VHH with K65E
notes: K64E vs precursor T028501817; also called A0315024B02(M43K, Q64E, K83R)

Kd: 12.2 nM
koff: 0.00249 s⁻¹
kon: 205000 M⁻¹ s⁻¹
B8: T028501824 (VHH)
VHH: B6 VHH with K65Q
notes: also called A0315024B02(M43K, (K64K83R))

Kd: 7.14 nM
koff: 0.00208 s⁻¹
kon: 291000 M⁻¹ s⁻¹
B9: T028501829 (VHH)
VHH: B6 VHH with K76Q
notes: K75Q vs precursor T028501817; also called A0315024B02(M43K, Q64K, K75Q, K83R)

Kd: 7.8 nM
koff: 0.00209 s⁻¹
kon: 268000 M⁻¹ s⁻¹
B10: T028501831 (VHH)
VHH: B6 VHH with K76H
notes: K75H vs precursor T028501817; also called A0315024B02(M43K, Q64K, K75H, K83R)

Kd: 10.5 nM
koff: 0.00226 s⁻¹
kon: 215000 M⁻¹ s⁻¹
B11: T028501818 (VHH)
VHH: B6 VHH with K43E
notes: K43E vs precursor T028501817; also called A0315024B02(M43E, Q64K, K83R)

Kd: 7.51 nM
koff: 0.00203 s⁻¹
kon: 270000 M⁻¹ s⁻¹
B12: T028501828 (VHH)
VHH: B6 VHH with K76E
notes: K75E vs precursor T028501817; 38 used; also called A0315024B02(M43K, Q64K, K75E, K83R)

Kd: 7.13 nM
koff: 0.00172 s⁻¹
kon: 242000 M⁻¹ s⁻¹
B13: T028501820 (VHH)
VHH: B6 VHH with K43R
notes: K43R vs precursor T028501817; also called A0315024B02(M43R, Q64K, K83R)

Kd: 8.77 nM
koff: 0.00198 s⁻¹
kon: 225000 M⁻¹ s⁻¹
B14: T028501822 (VHH)
VHH: B6 VHH with K43A
notes: K43A vs precursor T028501817; also called A0315024B02(M43A, Q64K, K83R)

Kd: 6.01 nM
koff: 0.00207 s⁻¹
kon: 344000 M⁻¹ s⁻¹
B15: T028501830 (VHH)
VHH: B6 VHH with K76R
notes: K75R vs precursor T028501817; also called A0315024B02(M43K, Q64K, K75R, K83R)

Kd: 7.95 nM
koff: 0.00235 s⁻¹
kon: 295000 M⁻¹ s⁻¹
B16: T028501827 (VHH)
VHH: B6 VHH with K65A
notes: K64A vs precursor T028501817; also called A0315024B02(M43K, Q64A, K83R)

Kd: 8.74 nM
koff: 0.00199 s⁻¹
kon: 228000 M⁻¹ s⁻¹
B17: T028501819 (VHH)
VHH: B6 VHH with K43Q
notes: K43Q vs precursor T028501817; also called A0315024B02(M43Q, Q64K, K83R)

Kd: 9.11 nM
koff: 0.00193 s⁻¹
kon: 212000 M⁻¹ s⁻¹
B18: T028501821 (VHH)
VHH: B6 VHH with K43H
notes: K43H vs precursor T028501817; also called A0315024B02(M43H, Q64K, K83R)

Kd: 8.42 nM
koff: 0.00232 s⁻¹
kon: 275000 M⁻¹ s⁻¹
B19: T028501826 (VHH)
VHH: B6 VHH with K65H
notes: K64H vs precursor T028501817; also called A0315024B02(M43K, Q64H, K83R)

Kd: 7.27 nM
koff: 0.00241 s⁻¹
kon: 331000 M⁻¹ s⁻¹
B20: T028501825 (VHH)
VHH: B6 VHH with K65R
notes: K64R vs precursor T028501817; also called A0315024B02(M43K, Q64R, K83R)

Kd: 6.34 nM
koff: 0.00204 s⁻¹
kon: 322000 M⁻¹ s⁻¹
B21: T028501832 (VHH)
VHH: B6 VHH with K76A
notes: K75A vs precursor T028501817; also called A0315024B02(M43K, Q64K,K75A, K83R)
